{"source": "paper PMC10296332", "about": "“Vertically-Ordered Mesoporous Silica Film Based Electrochemical Aptasensor for Highly Sensitive Detection of Alpha-Fetoprotein in Human Serum”", "binders": {"B1": {"name": "AFP aptamer (ssDNA)", "DNA": "GTGACGCTCCTAACGCTGACTCAGGTGCAGTTCTCGACTCGGTCTTGATGTGGGTCCTGTCCGTCCGAACCAATC", "modifications": "5'-NH2, coupled to GPTMS epoxy groups on mesoporous silica film"}}, "biological_target": "T1, alpha-fetoprotein (AFP) (UniProt P02771 19-609)", "T1 sequence": "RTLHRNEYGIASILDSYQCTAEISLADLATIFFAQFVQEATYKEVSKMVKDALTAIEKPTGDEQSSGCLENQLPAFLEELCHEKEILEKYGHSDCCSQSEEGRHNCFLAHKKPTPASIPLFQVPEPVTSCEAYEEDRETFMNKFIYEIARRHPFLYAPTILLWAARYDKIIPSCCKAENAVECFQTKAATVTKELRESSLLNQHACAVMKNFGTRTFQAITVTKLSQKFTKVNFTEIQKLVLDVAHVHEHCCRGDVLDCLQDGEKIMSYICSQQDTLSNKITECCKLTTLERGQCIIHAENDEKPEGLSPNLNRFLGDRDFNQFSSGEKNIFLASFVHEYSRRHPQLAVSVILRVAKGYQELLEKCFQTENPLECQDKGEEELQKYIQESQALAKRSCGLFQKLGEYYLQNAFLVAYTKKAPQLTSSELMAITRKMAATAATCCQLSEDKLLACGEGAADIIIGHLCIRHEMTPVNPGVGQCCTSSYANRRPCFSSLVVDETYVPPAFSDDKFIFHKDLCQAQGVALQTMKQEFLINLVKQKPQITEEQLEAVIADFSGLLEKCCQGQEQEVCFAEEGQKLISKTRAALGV", "assay": "electrochemical aptasensor (DPV, CV, EIS; Fe(CN)6 3-/4- probe); immobilized aptamer, BSA-blocked; linear 1 pg/mL-1 ug/mL, LOD 0.31 pg/mL (not a Kd); AFP incubated 1 h at 4 C on aptamer electrode, rinsed with 0.01 M PBS (sodium phosphate) pH 7.4; read-out in 2.5 mM K3/K4[Fe(CN)6], 0.1 M KCl", "details": "protein: commercial", "data": [{"binder": "B1", "values": [{"measurement": "binding result", "result": "binds"}]}]}
